Assays:
[1] = biological target: T1, Carcinoembryonic antigen (CEA) (human, UniProt P06731 35-685); assay: flow cytometry on MKN45 cells (CEA), hemibody mixed 1:1 with human ISO control, detected with anti-human IgG(H+L) (FITC in the legend box, A488 in the title)
T1 construct: whole, on cells; also called Carcinoembryonic antigen-related cell adhesion molecule 5; CEACAM5
T1 sequence (looked up): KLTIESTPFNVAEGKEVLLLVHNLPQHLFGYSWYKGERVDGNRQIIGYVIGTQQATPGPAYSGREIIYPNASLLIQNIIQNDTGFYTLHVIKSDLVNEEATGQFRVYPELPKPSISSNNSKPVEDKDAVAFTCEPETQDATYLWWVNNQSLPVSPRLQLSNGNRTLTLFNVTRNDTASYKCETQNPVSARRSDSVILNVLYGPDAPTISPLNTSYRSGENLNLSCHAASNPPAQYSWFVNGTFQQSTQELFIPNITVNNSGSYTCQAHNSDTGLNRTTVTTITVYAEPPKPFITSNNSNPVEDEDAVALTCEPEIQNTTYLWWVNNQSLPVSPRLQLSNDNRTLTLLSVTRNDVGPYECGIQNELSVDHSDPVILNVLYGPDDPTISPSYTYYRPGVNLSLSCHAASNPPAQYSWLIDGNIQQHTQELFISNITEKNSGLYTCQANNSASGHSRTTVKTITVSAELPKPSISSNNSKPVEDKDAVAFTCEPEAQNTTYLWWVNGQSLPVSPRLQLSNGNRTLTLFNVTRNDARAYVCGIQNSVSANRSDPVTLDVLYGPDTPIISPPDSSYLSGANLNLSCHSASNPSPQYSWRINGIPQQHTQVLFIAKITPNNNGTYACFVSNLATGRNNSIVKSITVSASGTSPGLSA
Procedure: To assess the functionality of the split antibodies or hemibodies, MKN-45 cells were detached from the culture vessel using accutase at 37° C. for 10 minutes. Subsequently, the cells were washed twice in PBS, and seeded into 96 well v-bottom plates to a final density of 4×10⁶ cells/well.
Subsequently, the cells were incubated for 1 h on ice and washed twice in PBS. The cell pellet was resuspended and 40 μl/well of detection reagent was added, either <human IgG(H+L)>FITC, (10 μg/ml) or Pb_Dotam_FITC 1:100=>(10 μg/ml) in PBS/5% FCS. After 60 min incubation on ice, the cells were washed twice in PBS and resuspended in 200 μl PBS/5% FCS for measurement of FITC fluorescence using a FACS canto.

[2] = biological target: T1, Carcinoembryonic antigen (CEA); assay: FACS on MKN-45 cells, detection with anti-huIgG(H+L)-Alexa488
Procedure: MKN-45 cells were detached from the culture bottle using Trypsin and were counted using a Casy cell counter. After pelleting at 4° C., 300 g the cells were resuspended in FACS Buffer (2.5% FCS in PBS), adjusted to 2.0E+06 cells/mL dispensed to 96-well PP V-bottom-Platte (25 μL/well=5.0E+04Zellen/well).
Both antibodies were added to the cells either separated followed by buffer or combined and incubated at 4° C. for 1 h. The cells were then washed twice in FACS buffer. After washing, the cells were resuspended in 50 μL FACS-buffer containing secondary antibody (<huIgG(H+L)>-Alexa488, c=10 μg/mL) and incubated 1 h at 4° C. The cells were then washed twice in FACS buffer and resuspended in 70 μl/well FACS buffer for measurement using a FACS Canto (BD, Pharmingen).

B1: P1AD8749 (antibody, human IgG1, kappa, L234A L235A)
heavy 1: QVQLVQSGAEVKKPGASVKVSCKASGYTFTEFGMNWVRQAPGQGLEWMGWINTKTGEATYVEEFKGRVTFTTDTSTSTAYMELRSLRSDDTAVYYCARWDFAYYVEAMDYWGQGTTVTVSSASTKGPSVFPLAPSSKSTSGGTAALGCLVKDYFPEPVTVSWNSGALTSGVHTFPAVLQSSGLYSLSSVVTVPSSSLGTQTYICNVNHKPSNTKVDKKVEPKSCDKTHTCPPCPAPEAAGGPSVFLFPPKPKDTLMISRTPEVTCVVVDVSHEDPEVKFNWYVDGVEVHNAKTKPREEQYNSTYRVVSVLTVLHQDWLNGKEYKCKVSNKALGAPIEKTISKAKGQPREPQVCTLPPSRDELTKNQVSLSCAVKGFYPSDIAVEWESNGQPENNYKTTPPVLDSDGSFFLVSKLTVDKSRWQQGNVFSCSVMHEALHNHYTQKSLSLSPG
heavy 2: not shown
light: DIQMTQSPSSLSASVGDRVTITCKASAAVGTYVAWYQQKPGKAPKLLIYSASYRKRGVPSRFSGSGSGTDFTLTISSLQPEDFATYYCHQYYTYPLFTFGQGTKLEIKRTVAAPSVFIFPPSDEQLKSGTASVVCLLNNFYPREAKVQWKVDNALQSGNSQESVTEQDSKDSTYSLSSTLTLSKADYEKHKVYACEVTHQGLSSPVTKSFNRGEC
notes: Split antibody (hemibody) with CH1A1A anti-CEA Fabs; also called CEA-split-DOTAM-VH; PRIT Split Antibody with DOTAM-VH
EC50 (read off the curve) [1]: ~1 µg/mL

B2: P1AF0712 (antibody)
heavy 1: not shown
heavy 2: QVQLVQSGAEVKKPGASVKVSCKASGYTFTEFGMNWVRQAPGQGLEWMGWINTKTGEATYVEEFKGRVTFTTDTSTSTAYMELRSLRSDDTAVYYCARWDFAYYVEAMDYWGQGTTVTVSSASTKGPSVFPLAPSSKSTSGGTAALGCLVKDYFPEPVTVSWNSGALTSGVHTFPAVLQSSGLYSLSSVVTVPSSSLGTQTYICNVNHKPSNTKVDKKVEPKSCDKTHTCPPCPAPEAAGGPSVFLFPPKPKDTLMISRTPEVTCVVVDVSHEDPEVKFNWYVDGVEVHNAKTKPREEQYNSTYRVVSVLTVLHQDWLNGKEYKCKVSNKALGAPIEKTISKAKGQPREPQVCTLPPSRDELTKNQVSLSCAVKGFYPSDIAVEWESNGQPENNYKTTPPVLDSDGSFFLVSKLTVDKSRWQQGNVFSCSVMHEALHNHYTQKSLSLSPGGGGGSGGGGSGGGGSGGGGSQAVVIQESALTTPPGETVTLTCGSSTGAVTASNYANWVQEKPDHLFTGLIGGHNNRPPGVPARFSGSLIGDKAALTIAGTQTEDEAIYFCALWYSDHWVIGGGTKLTVL
light: B1 light
notes: Split antibody with CH1A1A anti-CEA Fabs; Both heavy chains carry VH-CH1; also called CEA specific SPLIT antibody (DOTA-VL); P6_A
EC50 [2]: 2.7 µg/mL

B3: P1AF0713 (antibody)
heavy 1: B1 heavy 1
heavy 2: not shown
light: B1 light
notes: Split antibody with CH1A1A anti-CEA Fabs; Both heavy chains carry VH-CH1; also called CEA specific SPLIT antibody (DOTA-VH-AST); P6_B
EC50 [2]: 2.3 µg/mL

Reference: patent US20240082437A1 (Hoffmann-La Roche, published 2024)
